One may read the Kd as the concentration at which binding is half-saturated.

Read-outs that look alike come from different tables or passages of the source.

Assay [1] concerns the target T1, human EGFR soluble extracellular region with C-terminal poly-histidine tag (hEGFR) (UniProt P00533 25-638). Nature of the assay: SPR.
Assay [2] addresses T1, human EGFR soluble extracellular region …. Kind of assay: SPR. This is another data set of the same source.

B1: 10E6-stable (antibody, V domains shown)
VH: EVQLVESGGGLVQPGGSLRLSCAVSGYSLTSDYAWSWIRQAPGKGLEWMVYITYSGITTYNPSLKSRITISRDTSKNTFYLQMNSLRAEDTAVYYCAGGDYGLSSWFAYWGQGTMVTVSS
VL: DIQLTQSPSSLSASVGDRVTITCRASQSISNYLHWYQQKPGKAPKLLIKYASQSISGVPSRFSGSGSGTDFTLTISSLQPEDFATYFCQQSNNWPYTFGQGTKVEIKR
As for B1, the Kd in assay [1] was 14.5 nM.

B2: 10E6-best-fit (antibody, V domains shown)
VH: QVQLQESGPGLVKPSQTLSLTCTVSGYSLTSDYAWSWIRQPPGKGLEWMVYITYSGITTYNPSLKSRITISRDTSKNQFSLKLSSVTAADTAVYYCAGGDYGLSSWFAYWGQGTTVTVSS
VL: EIVLTQSPDFQSVTPKEKVTITCRASQSISNYLHWYQQKPDQSPKLLIKYASQSISGVPSRFSGSGSGTDFTLTINSLEAEDAATYFCQQSNNWPYTFGQGTKLEIKR
In assay [1], B2 yielded a Kd of 20.1 nM.

B3: 3A6 chimeric antibody (antibody, V domains shown)
VH: QVQLKQSGPGLVQPSQSLSITCTVSGFSLTSYGVHWVRQSPGKGLEWLGVIWSGGTTDYNAAFISRLSISQDNSKSQVFFKMNSLQANDTAIYYCAGNQGRTVRPTWFAYWGQGTLVTVSS
VL: DILLTQSPAILSVSPGERVSFSCRASQSIGTSIHWYQQRANGSPRLLIKYASESISGIPSRFSGSGSGTDFTLSINSVESEDIAHYYCQQNSNWPLTFGAGTKLELKR
In turn, B3 returned a dissociation constant Kd in assay [2] of 346 nM. That is a sub-micromolar value.

B4: 10E6 chimeric antibody (antibody, V domains shown)
VH: DVQLQESGPGRVKPSQSLSLTCTVTGYSLTSDYAWSWIRQFPGNRLEWMVYITYSGITTYNPSLKSRISITRDTSKNQFFLQLNSVTTEDTATYYCAGGDYGLSSWFAYWGQGTLVTVSS
VL: DIVLTQSPVTLSVTPGDRVSLSCRASQSISNYLHWYQQKSHESPRLLIKYASQSISGIPSRFSGSGSGTDFTLSINSVETEDFGMYFCQQSNNWPYTFGGGTKLEIKR
Regarding B4, binding in assay [2] was characterised by a dissociation constant (Kd) of 10.8 nM.

These data come from US20230159661A1 (published 2023).
